T1: FcγRIIb extracellular domain with C-terminal His tag (human, UniProt P31994 43-217)
T1 construct: extracellular domain; also called FcgRIIb; 2b; not shown: His tag attached to the C terminus
T1 sequence (looked up): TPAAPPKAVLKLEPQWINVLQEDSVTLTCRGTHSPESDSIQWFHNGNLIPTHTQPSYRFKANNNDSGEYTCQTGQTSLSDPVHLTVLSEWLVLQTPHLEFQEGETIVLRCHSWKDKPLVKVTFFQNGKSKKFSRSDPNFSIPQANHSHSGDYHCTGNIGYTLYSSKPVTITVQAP

B1: GpH7-A5/GpH7-B3 variant S324_05P/GpL16-k0 (antibody, human IgG1, kappa)
heavy 1: not shown
heavy 2: not shown
light: DIVMTQSPLSLPVTPGEPASISCQASESLVHSNRNTYLHWYLQKPGQSPQLLIYKVSNRFSGVPDRFSGSGSGTDFTLKISRVEAEDVGVYYCSQNTHVPPTFGQGTKVEIERTVAAPSVFIFPPSDEQLKSGTASVVCLLNNFYPREAKVQWKVDNALQSGNSQESVTEQDSKDSTYSLSSTLTLSKADYEKHKVYACEVTHQGLSSPVTKSFNRGEC
notes: Heterodimerized IgG1; alteration in one H chain only; also called He Ab
B2: GpH7-A5/GpH7-B3 variant N325_02A/GpL16-k0 (antibody, human IgG1, kappa)
heavy 1: not shown
heavy 2: not shown
light: B1 light
notes: as for B1
B3: GpH7-A5/GpH7-B3 variant N325_10E/GpL16-k0 (antibody, human IgG1, kappa)
heavy 1: not shown
heavy 2: not shown
light: B1 light
notes: as for B1
B4: GpH7-A5/GpH7-B3 variant N325_15Y/GpL16-k0 (antibody, human IgG1, kappa)
heavy 1: not shown
heavy 2: not shown
light: B1 light
notes: as for B1
B5: GpH7-A5/GpH7-B3 variant Y296_11K/GpL16-k0 (antibody, human IgG1, kappa)
heavy 1: not shown
heavy 2: not shown
light: B1 light
notes: as for B1
B6: GpH7-A5/GpH7-B3 variant Y296_13S/GpL16-k0 (antibody, human IgG1, kappa)
heavy 1: not shown
heavy 2: not shown
light: B1 light
notes: as for B1
B7: GpH7-A5/GpH7-B3 variant Y296_18N/GpL16-k0 (antibody, human IgG1, kappa)
heavy 1: not shown
heavy 2: not shown
light: B1 light
notes: as for B1
B8: GpH7-A5/GpH7-B3 variant L328_05P/GpL16-k0 (antibody, human IgG1, kappa)
heavy 1: not shown
heavy 2: not shown
light: B1 light
notes: as for B1
B9: GpH7-B3 variant K334_01G/GpL16-k0 (antibody, human IgG1, kappa)
heavy: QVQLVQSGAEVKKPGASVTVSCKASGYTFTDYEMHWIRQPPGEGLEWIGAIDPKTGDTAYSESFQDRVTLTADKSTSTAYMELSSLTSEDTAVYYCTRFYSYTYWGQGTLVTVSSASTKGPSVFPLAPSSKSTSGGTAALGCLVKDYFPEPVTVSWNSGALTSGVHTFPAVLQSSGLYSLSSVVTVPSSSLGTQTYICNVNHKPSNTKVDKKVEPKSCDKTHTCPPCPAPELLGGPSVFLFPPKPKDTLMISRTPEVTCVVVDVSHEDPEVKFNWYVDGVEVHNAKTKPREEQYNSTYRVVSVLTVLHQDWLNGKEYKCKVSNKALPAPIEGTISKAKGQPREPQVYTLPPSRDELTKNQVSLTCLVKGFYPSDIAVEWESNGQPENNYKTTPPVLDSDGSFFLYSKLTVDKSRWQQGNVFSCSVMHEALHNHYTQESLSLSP
light: B1 light
notes: homodimerized antibody, mutation in both H chains; also called K334_01G Ho Ab
B10: GpH7-B3 variant I336_16H/GpL16-k0 (antibody, human IgG1, kappa)
heavy: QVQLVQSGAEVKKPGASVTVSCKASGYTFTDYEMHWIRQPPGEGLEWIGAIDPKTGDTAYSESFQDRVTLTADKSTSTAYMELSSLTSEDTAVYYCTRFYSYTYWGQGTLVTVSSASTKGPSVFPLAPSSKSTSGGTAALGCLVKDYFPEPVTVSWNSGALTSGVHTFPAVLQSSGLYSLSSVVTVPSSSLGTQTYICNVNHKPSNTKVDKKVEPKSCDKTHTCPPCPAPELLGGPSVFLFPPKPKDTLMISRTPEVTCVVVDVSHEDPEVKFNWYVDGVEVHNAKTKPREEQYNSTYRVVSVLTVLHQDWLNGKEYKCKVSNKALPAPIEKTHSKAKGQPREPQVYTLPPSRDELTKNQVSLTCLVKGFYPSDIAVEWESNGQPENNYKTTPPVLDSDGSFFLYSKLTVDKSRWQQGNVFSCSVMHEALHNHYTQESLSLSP
light: B1 light
notes: homodimerized antibody, mutation in both H chains; also called I336_16H Ho Ab
B11: GpH7-B3 variant K326_04F/GpL16-k0 (antibody, human IgG1, kappa)
heavy: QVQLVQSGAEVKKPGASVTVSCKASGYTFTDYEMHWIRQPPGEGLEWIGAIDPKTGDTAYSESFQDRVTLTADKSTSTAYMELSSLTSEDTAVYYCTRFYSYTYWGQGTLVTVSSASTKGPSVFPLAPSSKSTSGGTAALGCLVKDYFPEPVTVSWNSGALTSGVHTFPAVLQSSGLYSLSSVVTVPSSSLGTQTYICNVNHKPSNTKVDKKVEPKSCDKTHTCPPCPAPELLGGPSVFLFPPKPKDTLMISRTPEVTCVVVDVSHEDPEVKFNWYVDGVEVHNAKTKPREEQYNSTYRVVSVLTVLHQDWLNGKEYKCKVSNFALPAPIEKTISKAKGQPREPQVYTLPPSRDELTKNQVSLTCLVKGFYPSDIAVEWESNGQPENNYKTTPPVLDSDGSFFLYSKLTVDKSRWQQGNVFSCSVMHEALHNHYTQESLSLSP
light: B1 light
notes: homodimerized antibody, mutation in both H chains; also called K326_04F Ho Ab
B12: GpH7-B3 variant K326_08L/GpL16-k0 (antibody, human IgG1, kappa)
heavy: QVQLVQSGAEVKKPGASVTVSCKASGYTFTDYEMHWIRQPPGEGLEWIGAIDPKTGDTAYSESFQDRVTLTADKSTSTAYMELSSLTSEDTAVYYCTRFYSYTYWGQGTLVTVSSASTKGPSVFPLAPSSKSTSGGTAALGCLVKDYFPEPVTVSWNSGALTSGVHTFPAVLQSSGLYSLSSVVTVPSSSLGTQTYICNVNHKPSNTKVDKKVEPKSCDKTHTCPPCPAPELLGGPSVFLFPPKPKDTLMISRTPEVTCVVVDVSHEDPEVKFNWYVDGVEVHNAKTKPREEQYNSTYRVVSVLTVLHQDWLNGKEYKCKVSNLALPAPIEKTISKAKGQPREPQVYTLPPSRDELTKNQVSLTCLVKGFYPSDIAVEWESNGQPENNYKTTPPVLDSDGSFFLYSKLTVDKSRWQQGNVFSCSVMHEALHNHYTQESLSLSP
light: B1 light
notes: homodimerized antibody, mutation in both H chains; also called K326_08L Ho Ab
B13: GpH7-B3 variant K326_07I/GpL16-k0 (antibody, human IgG1, kappa)
heavy: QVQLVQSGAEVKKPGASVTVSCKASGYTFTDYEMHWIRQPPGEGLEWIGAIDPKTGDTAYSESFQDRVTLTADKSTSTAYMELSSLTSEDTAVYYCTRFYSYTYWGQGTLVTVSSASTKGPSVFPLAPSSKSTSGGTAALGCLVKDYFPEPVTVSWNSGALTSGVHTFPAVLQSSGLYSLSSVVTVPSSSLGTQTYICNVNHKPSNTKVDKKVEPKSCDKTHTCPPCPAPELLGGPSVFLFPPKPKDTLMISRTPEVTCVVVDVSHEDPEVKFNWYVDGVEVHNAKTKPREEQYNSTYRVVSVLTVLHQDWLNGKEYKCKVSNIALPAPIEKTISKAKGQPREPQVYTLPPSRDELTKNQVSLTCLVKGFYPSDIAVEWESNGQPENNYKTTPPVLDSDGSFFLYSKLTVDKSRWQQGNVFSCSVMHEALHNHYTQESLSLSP
light: B1 light
notes: homodimerized antibody, mutation in both H chains; also called K326_07I Ho Ab
B14: GpH7-B3 variant K326_20W/GpL16-k0 (antibody, human IgG1, kappa)
heavy: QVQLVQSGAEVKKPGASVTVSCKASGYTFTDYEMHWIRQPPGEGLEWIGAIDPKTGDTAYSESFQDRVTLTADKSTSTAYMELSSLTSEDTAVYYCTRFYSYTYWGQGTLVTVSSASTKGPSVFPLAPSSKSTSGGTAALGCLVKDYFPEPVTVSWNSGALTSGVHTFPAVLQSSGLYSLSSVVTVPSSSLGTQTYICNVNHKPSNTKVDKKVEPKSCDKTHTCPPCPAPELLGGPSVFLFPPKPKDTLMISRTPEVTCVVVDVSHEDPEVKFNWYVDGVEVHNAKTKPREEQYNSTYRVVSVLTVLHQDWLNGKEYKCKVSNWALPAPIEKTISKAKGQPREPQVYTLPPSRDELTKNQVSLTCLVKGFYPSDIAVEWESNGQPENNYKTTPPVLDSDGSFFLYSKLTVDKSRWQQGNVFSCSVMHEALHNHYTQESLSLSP
light: B1 light
notes: homodimerized antibody, mutation in both H chains; also called K326_20W Ho Ab
B15: GpH7-B3 variant K326_19Q/GpL16-k0 (antibody, human IgG1, kappa)
heavy: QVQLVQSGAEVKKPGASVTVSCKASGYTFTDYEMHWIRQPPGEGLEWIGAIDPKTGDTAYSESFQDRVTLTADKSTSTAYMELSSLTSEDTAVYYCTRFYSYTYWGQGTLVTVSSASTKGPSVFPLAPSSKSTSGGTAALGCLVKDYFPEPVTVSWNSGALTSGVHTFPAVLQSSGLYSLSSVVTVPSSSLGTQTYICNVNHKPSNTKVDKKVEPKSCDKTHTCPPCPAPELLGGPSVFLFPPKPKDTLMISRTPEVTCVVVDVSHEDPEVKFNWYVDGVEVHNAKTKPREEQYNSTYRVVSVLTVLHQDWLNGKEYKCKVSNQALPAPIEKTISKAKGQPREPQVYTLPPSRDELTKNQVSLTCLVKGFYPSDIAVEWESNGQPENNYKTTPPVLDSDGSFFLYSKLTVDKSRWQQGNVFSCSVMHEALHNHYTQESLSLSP
light: B1 light
notes: homodimerized antibody, mutation in both H chains; also called K326_19Q Ho Ab
B16: GpH7-B3 variant I336_15Y/GpL16-k0 (antibody, human IgG1, kappa)
heavy: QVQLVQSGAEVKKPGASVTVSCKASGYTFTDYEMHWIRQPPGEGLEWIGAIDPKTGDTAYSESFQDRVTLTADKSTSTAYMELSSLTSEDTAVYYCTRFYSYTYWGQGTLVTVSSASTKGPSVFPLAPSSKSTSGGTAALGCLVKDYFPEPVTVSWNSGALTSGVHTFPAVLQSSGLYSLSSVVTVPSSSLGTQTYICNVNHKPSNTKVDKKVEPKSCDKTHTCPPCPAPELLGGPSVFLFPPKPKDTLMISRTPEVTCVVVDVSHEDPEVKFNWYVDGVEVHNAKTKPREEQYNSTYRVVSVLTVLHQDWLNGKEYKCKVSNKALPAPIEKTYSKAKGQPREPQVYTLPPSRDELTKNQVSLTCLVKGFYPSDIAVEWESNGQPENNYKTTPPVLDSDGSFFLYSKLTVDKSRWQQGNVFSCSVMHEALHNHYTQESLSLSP
light: B1 light
notes: homodimerized antibody, mutation in both H chains; also called I336_15Y Ho Ab
B17: GpH7-B3 variant K326_10E/GpL16-k0 (antibody, human IgG1, kappa)
heavy: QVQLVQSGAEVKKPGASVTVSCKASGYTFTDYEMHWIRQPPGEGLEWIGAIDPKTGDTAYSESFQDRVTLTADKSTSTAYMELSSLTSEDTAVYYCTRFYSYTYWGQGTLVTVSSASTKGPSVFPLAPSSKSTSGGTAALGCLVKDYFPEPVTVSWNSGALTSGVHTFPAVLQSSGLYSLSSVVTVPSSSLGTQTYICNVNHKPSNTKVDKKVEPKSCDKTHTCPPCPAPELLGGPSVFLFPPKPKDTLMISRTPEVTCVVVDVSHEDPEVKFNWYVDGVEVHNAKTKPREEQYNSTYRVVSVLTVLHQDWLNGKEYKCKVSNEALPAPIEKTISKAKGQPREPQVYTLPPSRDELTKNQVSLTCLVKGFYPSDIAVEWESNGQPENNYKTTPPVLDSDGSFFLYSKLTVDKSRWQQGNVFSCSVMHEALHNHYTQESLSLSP
light: B1 light
notes: homodimerized antibody, mutation in both H chains; also called K326_10E Ho Ab
B18: GpH7-B3 variant K326_09D/GpL16-k0 (antibody, human IgG1, kappa)
heavy: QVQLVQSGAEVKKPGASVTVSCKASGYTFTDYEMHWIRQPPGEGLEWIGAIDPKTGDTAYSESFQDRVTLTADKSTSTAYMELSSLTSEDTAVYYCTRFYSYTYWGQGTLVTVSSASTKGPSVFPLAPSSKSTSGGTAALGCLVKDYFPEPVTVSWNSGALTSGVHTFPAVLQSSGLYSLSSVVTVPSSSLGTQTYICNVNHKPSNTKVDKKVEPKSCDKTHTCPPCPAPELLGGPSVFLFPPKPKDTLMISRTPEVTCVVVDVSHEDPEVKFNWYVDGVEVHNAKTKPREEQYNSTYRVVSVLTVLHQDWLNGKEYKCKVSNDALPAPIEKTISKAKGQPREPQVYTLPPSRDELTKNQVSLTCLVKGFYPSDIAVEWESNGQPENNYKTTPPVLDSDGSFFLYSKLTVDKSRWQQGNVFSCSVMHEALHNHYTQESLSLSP
light: B1 light
notes: homodimerized antibody, mutation in both H chains; also called K326_09D Ho Ab
B19: GpH7-B3 variant K326_03V/GpL16-k0 (antibody, human IgG1, kappa)
heavy: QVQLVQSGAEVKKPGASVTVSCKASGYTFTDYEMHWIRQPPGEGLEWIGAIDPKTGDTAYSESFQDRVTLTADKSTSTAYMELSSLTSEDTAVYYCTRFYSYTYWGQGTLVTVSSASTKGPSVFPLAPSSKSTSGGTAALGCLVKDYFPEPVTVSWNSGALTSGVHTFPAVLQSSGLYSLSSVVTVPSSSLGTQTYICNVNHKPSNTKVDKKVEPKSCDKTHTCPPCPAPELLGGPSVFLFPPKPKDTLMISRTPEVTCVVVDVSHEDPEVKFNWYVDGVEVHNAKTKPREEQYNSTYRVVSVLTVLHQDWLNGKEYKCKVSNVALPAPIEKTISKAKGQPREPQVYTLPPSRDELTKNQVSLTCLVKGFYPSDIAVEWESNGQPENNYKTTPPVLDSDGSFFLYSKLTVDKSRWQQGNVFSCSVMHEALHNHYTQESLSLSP
light: B1 light
notes: homodimerized antibody, mutation in both H chains; also called K326_03V Ho Ab
B20: GpH7-B3 variant K326_06M/GpL16-k0 (antibody, human IgG1, kappa)
heavy: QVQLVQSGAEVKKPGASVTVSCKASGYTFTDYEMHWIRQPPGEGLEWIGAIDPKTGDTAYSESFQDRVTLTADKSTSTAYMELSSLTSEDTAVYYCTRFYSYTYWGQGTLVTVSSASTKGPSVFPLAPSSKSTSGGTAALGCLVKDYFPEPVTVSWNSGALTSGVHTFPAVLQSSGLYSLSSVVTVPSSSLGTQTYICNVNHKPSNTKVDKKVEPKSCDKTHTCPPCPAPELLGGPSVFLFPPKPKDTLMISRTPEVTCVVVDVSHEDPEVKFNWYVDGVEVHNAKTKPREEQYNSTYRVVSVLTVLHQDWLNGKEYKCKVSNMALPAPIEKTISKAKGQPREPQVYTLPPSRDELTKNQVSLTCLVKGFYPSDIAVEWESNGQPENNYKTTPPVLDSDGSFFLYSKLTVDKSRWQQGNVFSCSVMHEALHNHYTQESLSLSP
light: B1 light
notes: homodimerized antibody, mutation in both H chains; also called K326_06M Ho Ab

Molecular target: T1, FcγRIIb extracellular domain with …
Assay: SPR (Biacore), relative binding
Protocol: (§1) Analysis of interaction between objective antibody and the FcγR was carried out using Biacore T100 (GE Healthcare). HBS-EP+ (GE Healthcare) was used as the running buffer, and the measurement temperature was set to 25° C. Chips produced by immobilizing the antigen peptide by the amine coupling method to a Series S Sencor Chip CM5 (GE Healthcare), or alternatively, chips produced by allowing preliminarily biotinylated antigen peptides to interact with and immobilize onto a Series S Sensor Chip SA (certified) (GE Healthcare) were used. Antibodies of interest were captured onto an antigen peptide-immobilized chip, and allowed to interact to each FcγR diluted with running buffer. To regenerate and repeatedly use the chip, the antibodies captured on the chip were washed off by reacting 10 mM glycine-HCl, pH 1.5.
(§2) The FcγR-binding activity of each antibody was assessed primarily using as an indicator the FcγR-binding activity and dissociation constant for FcγR.

He/Con_2b (IIb binding)	Binder
94.7 % of GpH7-A5/GpH7-B3/GpL16-k0 (=100)	B1
64.4 % of GpH7-A5/GpH7-B3/GpL16-k0 (=100)	B2
95.9 % of GpH7-A5/GpH7-B3/GpL16-k0 (=100)	B3
99.5 % of GpH7-A5/GpH7-B3/GpL16-k0 (=100)	B4
72.8 % of GpH7-A5/GpH7-B3/GpL16-k0 (=100)	B5
86.3 % of GpH7-A5/GpH7-B3/GpL16-k0 (=100)	B6
91.5 % of GpH7-A5/GpH7-B3/GpL16-k0 (=100)	B7
65.1 % of GpH7-A5/GpH7-B3/GpL16-k0 (=100)	B8

Molecular target: T2, FcγRIIIa extracellular domain with C-terminal His tag (human, UniProt P08637 17-208)
T2 construct: extracellular domain; also called FcgRIIIa; 3a; not shown: His tag attached to the C terminus
T2 sequence (P08637 17-208): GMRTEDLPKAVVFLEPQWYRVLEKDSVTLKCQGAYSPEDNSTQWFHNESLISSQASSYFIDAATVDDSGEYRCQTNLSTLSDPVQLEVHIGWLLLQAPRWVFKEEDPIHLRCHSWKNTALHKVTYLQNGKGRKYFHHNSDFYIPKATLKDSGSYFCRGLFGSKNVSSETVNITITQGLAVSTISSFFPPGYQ
Assay: SPR (Biacore), relative binding
Protocol: as §1, §2

He/Con_3a (IIIa binding)	Binder
65.5 % of GpH7-A5/GpH7-B3/GpL16-k0 (=100)	B1
30.5 % of GpH7-A5/GpH7-B3/GpL16-k0 (=100)	B2
38.2 % of GpH7-A5/GpH7-B3/GpL16-k0 (=100)	B3
29.5 % of GpH7-A5/GpH7-B3/GpL16-k0 (=100)	B4
56.7 % of GpH7-A5/GpH7-B3/GpL16-k0 (=100)	B5
61.8 % of GpH7-A5/GpH7-B3/GpL16-k0 (=100)	B6
72.1 % of GpH7-A5/GpH7-B3/GpL16-k0 (=100)	B7
40.5 % of GpH7-A5/GpH7-B3/GpL16-k0 (=100)	B8

Molecular target: T3, FcγRIa extracellular domain with C-terminal His tag (human, UniProt P12314 16-292)
T3 construct: extracellular domain; soluble analyte in Biacore; also called FcgRI; CD64
T3 sequence (P12314 16-292): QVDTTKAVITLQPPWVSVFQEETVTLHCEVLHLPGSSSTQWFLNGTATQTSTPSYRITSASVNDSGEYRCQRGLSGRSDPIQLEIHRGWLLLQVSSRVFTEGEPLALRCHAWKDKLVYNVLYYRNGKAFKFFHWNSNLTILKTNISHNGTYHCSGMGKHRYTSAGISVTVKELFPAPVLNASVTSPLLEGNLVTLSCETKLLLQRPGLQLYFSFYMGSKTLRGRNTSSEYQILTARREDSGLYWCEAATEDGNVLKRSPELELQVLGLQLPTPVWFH
Assay: SPR (Biacore), relative FcγRIa binding, GpH7-B3/GpL16-k0 (HoCon Ab) = 100

Ho/Con_1a	Binder
106 % of control	B9
114 % of control	B10
102 % of control	B11
101 % of control	B12
102 % of control	B13
104 % of control	B14
105 % of control	B15
110 % of control	B16
105 % of control	B17
106 % of control	B18
103 % of control	B19
104 % of control	B20

Molecular target: T2, FcγRIIIa extracellular domain with …
Assay: SPR (Biacore); He/Con_3a divided by He/Con_2b (reference: binding to FcγRIIb)
Protocol: as §1, §2

He_3a/2b (IIIa/IIb)	Binder
0.69 ratio	B1
0.47 ratio	B2
0.4 ratio	B3
0.3 ratio	B4
0.78 ratio	B5
0.72 ratio	B6
0.79 ratio	B7
0.62 ratio	B8

Reference: patent publication US20180155451A1 (published 2018)
